Data published in patent publication US20240376213A1 (YEDA RESEARCH AND DEVELOPMENT, published 2024).

What was measured:
[1] = target: T1, recombinant extracellular domain of mouse PD-1 (Sino Biological) (mouse, UniProt Q02242 25-169); test: binding ELISA titration on recombinant protein (FIG. 3A)
T1 construct: extracellular domain; Coated on ELISA plates at 1 ug/mL; also called mPD-1; recombinant mouse PD-1
T1 sequence (looked up): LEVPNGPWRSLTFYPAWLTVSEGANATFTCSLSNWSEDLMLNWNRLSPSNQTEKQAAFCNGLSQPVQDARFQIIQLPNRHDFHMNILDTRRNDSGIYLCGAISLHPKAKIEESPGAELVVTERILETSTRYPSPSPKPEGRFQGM

[2] = target: T2, mouse CLEC9A on cells (HEK293 cells stably overexpressing mCLEC9A; cDC1 among mouse splenocytes) (mouse, UniProt Q8BRU4 1-238); test: dual-binding FACS doublet assay, 1:1 mix of CFSE/CellTrace-stained HEK293 cells expressing each target (FIG. 4A)
T2 construct: whole, on cells
T2 sequence (looked up): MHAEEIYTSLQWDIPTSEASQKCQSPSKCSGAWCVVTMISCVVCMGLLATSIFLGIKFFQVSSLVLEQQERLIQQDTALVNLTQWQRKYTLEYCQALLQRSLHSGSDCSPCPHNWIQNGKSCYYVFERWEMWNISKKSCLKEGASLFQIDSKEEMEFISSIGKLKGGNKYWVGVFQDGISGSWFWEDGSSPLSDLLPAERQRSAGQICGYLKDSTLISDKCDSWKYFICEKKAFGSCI

[3] = target: T3, mouse PD-1 on cells (HEK293 cells stably overexpressing mPD-1; PD-1+ CD8+ OT-1 T cells) (mouse, UniProt Q02242 25-288); test: as above
T3 construct: whole, on cells; also called HEK293-mPD-1
T3 sequence (looked up): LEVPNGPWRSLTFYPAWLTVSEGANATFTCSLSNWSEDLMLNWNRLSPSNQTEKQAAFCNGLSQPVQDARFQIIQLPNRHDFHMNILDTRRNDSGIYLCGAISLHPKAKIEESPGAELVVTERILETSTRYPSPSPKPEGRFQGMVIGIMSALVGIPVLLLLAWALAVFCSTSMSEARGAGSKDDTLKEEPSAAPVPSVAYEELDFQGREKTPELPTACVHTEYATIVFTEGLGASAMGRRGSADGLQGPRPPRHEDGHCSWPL

[4] = target: T4, mouse XCR1 on cells (HEK293 cells stably overexpressing mXCR1; cDC1 among mouse splenocytes) (mouse, UniProt Q9R0M1 1-322); test: FACS binding titration on HEK293-mXCR1 cells (FIG. 3B)
T4 construct: whole, on cells
T4 sequence (looked up): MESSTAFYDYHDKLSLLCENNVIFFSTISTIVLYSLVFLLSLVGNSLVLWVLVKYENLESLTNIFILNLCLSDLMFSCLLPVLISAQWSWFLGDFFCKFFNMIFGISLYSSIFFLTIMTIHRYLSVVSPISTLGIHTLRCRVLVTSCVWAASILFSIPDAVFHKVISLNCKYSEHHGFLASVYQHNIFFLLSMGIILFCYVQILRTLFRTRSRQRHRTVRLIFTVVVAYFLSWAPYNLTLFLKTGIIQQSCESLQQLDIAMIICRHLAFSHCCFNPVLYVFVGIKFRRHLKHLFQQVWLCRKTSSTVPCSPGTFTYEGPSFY

[5] = target: T1, recombinant extracellular domain of …; test: ELISA on recombinant mouse PD-1 (FIG. 3A)

Measured: binding result

B1: PD-1/CLEC9A BiSE (bispecific immune synapse engager; anti-mouse PD-1 clone RMP1-14 arm x anti-mouse CLEC9A clone 10B4 arm) (bispecific antibody)
heavy 1: not shown
light 1: DIVMTQGTLPNPVPSGESVSITCRSSKSLLYSDGKTYLNWYLQRPGQSPQLLIYWMSTRASGVSDRFSGSGSGTDFTLKISGVEAEDVGIYYCQQGLEFPTFGGGTKLELERTVAAPSVFIFPPSDEQLKSGTASVVCLLNNFYPREAKVQWKVDNALQSGNSQESVTEQDSKDSTYSLSSTLTLSKADYEKHKVYACEVTHQGLSSPVTKSFNRGEC
heavy 2: QIVESGGGLVQPKESLKISCTASGFTFSNAAIYWVRQTPGKGLEWVGRIRTRPSKYATDYADSVRGRFTISRDDSKSMVYLQMDNLRTEDTAMYYCTPRATEDVPFYWGQGVMVTVSSASVAAPSVFIFPPSDEQLKSGTASVVCLLNNFYPREAKVQWKVDNALQSGNSQESVTEQDSKDSTYSLSSTLTLSKADYEKHKVYACEVTHQGLSSPVTKSFNRGECDRSEPKSCDKTHTCPPCPAPELLGGPSVFLFPPKPKDTLMISRTPEVTCVVVDVSHEDPEVKFNWYVDGVEVHNAKTKPREEQYASTYRVVSVLTVLHQDWLNGKEYKCKVSNKALPAPIEKTISKAKGQPREPQVCTLPPSREEMTKNQVSLSCAVKGFYPSDIAVEWESNGQPENNYKTTPPVLDSDGSFFLVSKLTVDKSRWQQGNVFSCSVMHEALHNHYTQKSLSLSPGKSAWSHPQFEK
light 2: DIVMTQTPSSQAVSAGEKVTMNCKSSQSVLYDENKKNYLAWYQQKSGQSPKLLIYWASTGESGVPDRFIGSGSGTDFTLTISSVQAEDLAVYYCQQYYDFPPTFGGGTKLELKSSASTKGPSVFPLAPSSKSTSGGTAALGCLVKDYFPEPVTVSWNSGALTSGVHTFPAVLQSSGLYSLSSVVTVPSSSLGTQTYICNVNHKPSNTKVDKKVEPKSC
notes: Knobs-into-holes, CrossMab (CH1-CL swap on the DC arm), Fc N297A, human IgG1/kappa backbone; copies: 1 + 1 + 1 + 1
binds: [1] | [2] | [3]

B2: PD-1/XCR1 BiSE (bispecific immune synapse engager; anti-mouse PD-1 clone RMP1-14 arm x anti-mouse XCR1 clone MARX10 arm) (bispecific antibody)
heavy 1: not shown
light 1: B1 light 1
heavy 2: QVQLQQPGAELVKPGASVKLSCKASGYTFTNYWIHWMKQRPGQGLEWIGMIHPNSDNTKYNEKFKAKAILTVDKSSSTAYMQLSSLTSEDSAVYYCARFANDGAYWGQGTLVTVSSASVAAPSVFIFPPSDEQLKSGTASVVCLLNNFYPREAKVQWKVDNALQSGNSQESVTEQDSKDSTYSLSSTLTLSKADYEKHKVYACEVTHQGLSSPVTKSFNRGECDRSEPKSCDKTHTCPPCPAPELLGGPSVFLFPPKPKDTLMISRTPEVTCVVVDVSHEDPEVKFNWYVDGVEVHNAKTKPREEQYASTYRVVSVLTVLHQDWLNGKEYKCKVSNKALPAPIEKTISKAKGQPREPQVCTLPPSREEMTKNQVSLSCAVKGFYPSDIAVEWESNGQPENNYKTTPPVLDSDGSFFLVSKLTVDKSRWQQGNVFSCSVMHEALHNHYTQKSLSLSPGKSAWSHPQFEK
light 2: DVVVTQTPLSLPVSLGDPASISCKSSQSLVHSNGNTYLHWYLQKPGQSPKLLIYKISNRFSGVPDRFSGSGSGTDFTLKISRVEAEDLGVYFCSQNTHVPYTFGGGTKLEIKSSASTKGPSVFPLAPSSKSTSGGTAALGCLVKDYFPEPVTVSWNSGALTSGVHTFPAVLQSSGLYSLSSVVTVPSSSLGTQTYICNVNHKPSNTKVDKKVEPKSC
notes: as for B1
binds: [4] | [3] | [5]
